The record followed here is paper PMC6076860 (Analytical biochemistry, 2018).

The data set deals with the molecule itself. Put plainly: SEC.

B1: PCD αβ dimer (protomer of the protocatechuate 3,4-dioxygenase holoenzyme complex) from Pseudomonas putida (complex)
chain 1: MPIELLPETPSQTAGPYVHIGLALEAAGNPTRDQEIWNRLAKPDAPGEHILLLGQVYDGNGHLVRDSFLEVWQADANGEYQDAYNLENAFNSFGRTATTFDAGEWTLHTVKPGVVNNAAGVPMAPHINISLFARGINIHLHTRLYFDDEAQANAKCPVLNLIEQPQRRETLIAKRCEVDGKTAYRFDIRIQGEGETVFFDF
chain 2: MPAQDNSRFVIRDRNWHPKALTPDYKTSIARSPRQALVSIPQSISETTGPNFSHLGFGAHDHDLLLNFNNGGLPIGERIIVAGRVVDQYGKPVPNTLVEMWQANAGGRYRHKNDRYLAPLDPNFGGVGRCLTDSDGYYSFRTIKPGPYPWRNGPNDWRPAHIHFGISGPSIATKLITQLYFEGDPLIPMCPIVKSIANPEAVQQLIAKLDMNNANPMDCLAYRFDIVLRGQRKTHFENC
As to B1, the binding result was “binds”.
